# Measured values from US20110097317A1.
# Biological target: thioredoxin (TRX), endogenous in bovine aortic endothelial cells (BAEC) (bovine) (UniProt O97680)
# Test: cell-based or functional assay
# Chain of UniProt O97680 (O97680 2-105 limits assumed): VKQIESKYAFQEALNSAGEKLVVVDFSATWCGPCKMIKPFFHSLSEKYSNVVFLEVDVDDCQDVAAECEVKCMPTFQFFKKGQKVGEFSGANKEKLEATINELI
substance,measurement,value
Thioredoxin interacting protein (TXNIP) over-expressed from pcDNA3.1-TXNIP in BAEC,TNF-mediated activation of JNK (phospho-specific immunoblot) in BAEC over-expressing TXNIP,33%
same,TNF-mediated activation of p38 (phospho-specific immunoblot) in BAEC over-expressing TXNIP,23%
